Test results taken from patent US20200231671A1 (E R SQUIBB AND SONS L L C, published 2020).
Substitutions are numbered along the chain they refer to. Values belong to the binder of their own block, whether it stands above or below them. Where no end group is shown, it is not given here.

Legend:
[1] = molecular target: T1, LAG-3 extra loop scan peptide AAPGHPLAPGPH (human, also: conjugated to biotin, site not given here); experiment: peptide scan ELISA
T1 construct: 12-mer overlapping scan peptide of the extra loop
T1 peptide: AAPGHPLAPGPH
Description: (§1) In the LAG-3 protein, the immunoglobulin-like first domain of the extracellular region contains an exposed “extra loop” having the amino acid sequence: […] (SEQ ID NO: 79). To examine the binding of 25E3, 25F7, 8B7 and 26H10 to this region of LAG-3, and map the epitope bound by each antibody, a peptide scan experiment was performed across this region. A series of 10 overlapping peptides that scanned across the full length of the extra loop sequence were prepared and conjugated to biotin. For ELISA analysis, microtiter plates pre-coated with streptavidin (Sigma-Aldrich, Cat # M5432) were used to capture the biotinylated loop peptide-conjugates applied in a 100 μl volume at a concentration of 2 μg/mL and incubated 18 hours at 4° C., after which the plates were washed 3 times and blocked at room temperature for 1 hour with blocking buffer (1×PBS+10% FBS). Next, human anti-LAG-3 antibodies serially diluted 3-fold in blocking buffer from 10 μg/mL were applied and the plates were incubated at room temperature for 2 hours and then washed three times. To detect bound human antibody a HRP-conjugated goat anti-human kappa light chain antibody (Bethyl Laboratories, Cat # A80-115P) was diluted to 1 μg/mL in blocking buffer and applied to assay wells for 1 hour followed by three washes and application of TMB substrate (eBioscience, Cat #00-4201-56). Optical density readings at 650 nm wavelength were made on a Spectramax 340PC spectrophotometer ([…].).

[2] = molecular target: T2, LAG-3 extra loop scan peptide PGHPLAPGPHPA (human, also: conjugated to biotin); experiment: peptide scan ELISA
T2 construct: 12-mer overlapping scan peptide of the extra loop
T2 peptide: PGHPLAPGPHPA
Description: as §1

[3] = molecular target: T3, LAG-3 extra loop scan peptide PAAAPGHPLAPG (human, also: conjugated to biotin, site not given here); experiment: peptide scan ELISA
T3 construct: 12-mer overlapping scan peptide of the extra loop
T3 peptide: PAAAPGHPLAPG
Description: as §1

[4] = molecular target: T4, recombinant human LAG-3 fusion protein (human, UniProt P18627 23-450); experiment: BIAcore, antibody captured on anti-CH1, 20 nM LAG-3 fusion protein injected
T4 construct: also called recombinant LAG-3 protein
T4 sequence (looked up): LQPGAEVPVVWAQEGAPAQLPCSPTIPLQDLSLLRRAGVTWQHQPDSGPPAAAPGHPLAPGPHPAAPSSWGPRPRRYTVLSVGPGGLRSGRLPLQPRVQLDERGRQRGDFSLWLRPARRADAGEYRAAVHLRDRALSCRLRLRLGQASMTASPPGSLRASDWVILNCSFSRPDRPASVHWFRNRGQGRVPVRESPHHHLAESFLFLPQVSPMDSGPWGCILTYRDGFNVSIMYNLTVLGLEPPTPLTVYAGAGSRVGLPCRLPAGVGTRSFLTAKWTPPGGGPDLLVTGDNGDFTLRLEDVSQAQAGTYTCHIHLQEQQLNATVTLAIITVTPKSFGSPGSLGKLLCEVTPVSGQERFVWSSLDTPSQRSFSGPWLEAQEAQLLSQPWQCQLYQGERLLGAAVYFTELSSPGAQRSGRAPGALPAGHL
Description: The binding of the 25E3, 25F7, 8B7, 26H10 and 17E5 antibodies to recombinant LAG-3 protein was examined by BIAcore™ using a capture method. The 25E3, 25F7, 8B7, 26H10 and 17E5 antibodies each were captured using anti-CH1, a reagent antibody that is specific towards the heavy chain constant region 1 of human antibody (Zymed, Clone HP6045, Stock conc. 1.0 mg/mL). Anti-CH1 was coated on a CMS chip (BR-1000-14, Research Grade) at high density (9700-11500RUs). The coating was carried out based on the standard immobilization procedure recommended by the manufacturer. The 25E3, 25F7, 8B7, 26H10 or 17E5 purified antibody, with concentrations ranging from 0.5-3 μg/mL, was then captured on the anti-CH1 coated surface at the flow-rate of 10 uL/min for 1 minute. A single concentration of recombinant human LAG-3 fusion protein (20 nM) was injected over captured antibody for 3 minutes at a flow rate of […]. The antigen was allowed to dissociate for 7.5 minutes. The chip surface was regenerated after each cycle with 25 μL, of 25 mM NaOH followed by 30 μL of HBS-EP wash. Isotype controls were run on the chip, and the data used to subtract non-specific binding. All the experiments were carried out on a Biacore 3000 surface plasmon resonance instrument, using BIAcore Control software v 3.2. Data analysis was carried out using BiaEvaluation v3.2 software. The BIAcore results for 25E3, 25F7, 8B7, 26H10 and 17E5 confirm the flow cytometry results that all five antibodies are capable of binding with high affinity to human LAG-3.

[5] = molecular target: T5, rhesus monkey LAG-3, clone pa23-5 (cell surface, CHO) (rhesus monkey, UniProt P18627 24-525 (human entry)); experiment: flow cytometry, CHO cells expressing rhesus LAG-3
T5 construct: also called CHO-rhesus LAG3
T5 chain: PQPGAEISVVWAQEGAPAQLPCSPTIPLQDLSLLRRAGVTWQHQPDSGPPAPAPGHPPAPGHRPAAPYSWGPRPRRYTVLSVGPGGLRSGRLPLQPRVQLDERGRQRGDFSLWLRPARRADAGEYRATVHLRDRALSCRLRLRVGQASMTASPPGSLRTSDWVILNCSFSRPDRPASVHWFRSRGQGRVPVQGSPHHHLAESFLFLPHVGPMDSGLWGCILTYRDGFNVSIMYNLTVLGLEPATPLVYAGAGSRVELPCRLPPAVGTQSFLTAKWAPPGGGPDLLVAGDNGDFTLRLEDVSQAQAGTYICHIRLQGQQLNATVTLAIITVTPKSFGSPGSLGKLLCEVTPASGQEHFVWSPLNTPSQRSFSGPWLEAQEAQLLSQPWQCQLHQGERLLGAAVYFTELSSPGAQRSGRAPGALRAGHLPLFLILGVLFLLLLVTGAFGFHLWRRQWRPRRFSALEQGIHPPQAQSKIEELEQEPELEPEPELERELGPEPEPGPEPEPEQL
Excerpt: The cDNA of clone pa23-5 was inserted into an expression construct, which was transfected into CHO-S suspension cells by nucleofection (Amaxa). Rhesus LAG-3 expression by sorted, selection drug-resistant clones was verified by FACS analysis. This clonal CHO cell line over-expressing rhesus LAG-3 was used in similar FACS assays to those described above to measure antibody cross reactivity to the monkey protein. Briefly, the 25F7, 8B7 and 26H10 monoclonal antibodies were serially diluted with cold 1×PFAE buffer (1×PBS+2% FBS, 0.02% sodium azide, 2 mM Na EDTA). For the binding reaction, 50 μl of diluted antibody solution was added to a 50 μl cell suspension containing 2×10⁵ cells and the mixture was incubated on ice for 30 minutes. The cells were processed by the same protocol described above. The analysis of antibody binding was conducted as described above.

[6] = molecular target: T6, LAG-3 extra loop scan peptide LAPGPHPAAPSS (human, also: conjugated to biotin, site not given here); experiment: peptide scan ELISA
T6 construct: 12-mer overlapping scan peptide of the extra loop
T6 peptide: LAPGPHPAAPSS
Description: as §1

B2: 25F7 human monoclonal antibody (antibody, IgG1, V domains shown)
VH: QVQLQQWGAGLLKPSETLSLTCAVYGGSFSDYYWNWIRQPPGKGLEWIGEINHNGNTNSNPSLKSRVTLSLDTSKNQFSLKLRSVTAADTAVYYCAFGYSDYEYNWFDPWGQGTLVTVSS
VL: EIVLTQSPATLSLSPGERATLSCRASQSISSYLAWYQQKPGQAPRLLIYDASNRATGIPARFSGSGSGTDFTLTISSLEPEDFAVYYCQQRSNWPLTFGQGTNLEIK
notes: also called 25F7-FITC (IgG1 version)
EC50 [5]: 22.7 nM
Kd [4]: 0.47 nM

B3: 8B7 human monoclonal antibody (antibody, IgG4, V domains shown)
VH: QVQLQQWGAGLLKPSETLSLTCAVYGGSFSGYYWSWIRQPPGKGLEWIGEINHRGNTNCNPSLKSRVTISGDTSKKQFALKLNSVTAADTAVYYCARGYDILTGYYEDSWGPGTLVTVSS
VL: B2 VL with I29V, D50N, Q100G, N103K, L104V
notes: also called 8B7-FITC
EC50 [5]: 10 nM
Kd [4]: 0.09 nM

More lines, now with the values ahead:

binding result [1]: binds
binding result [2]: binds
binding result [3]: binds
Kd [4]: 0.09 nM
B1: 25E3 human monoclonal antibody (antibody, IgG1, V domains shown)
VH: EVQLVESGGGVVRPGGSLRLSCAASGFTFDDYGMSWVRQAPGKGLEWVSGINWNGGSTYYADSVKGRFTISGDNAKNSLYLQMNSLRAEDTALYYCTTGGYWGQGTLVTVSS
VL: AIQLTQSPSSLSASVGDRVTITCRASQGIRSALAWYQQKPGKAPKLLIYDASSLESGVPSRFSGSGSGTDFTLTISSLQPEDFATYYCQQFNSYPYTFGQGTKLEIK

EC50 [5]: 4.68 nM
binding result [1]: no binding (tested: 10 µg/mL)
binding result [2]: no binding (tested: 10 µg/mL)
binding result [3]: no binding (tested: 10 µg/mL)
binding result [6]: no binding (tested: 10 µg/mL)
Kd [4]: 0.1 nM
B4: 26H10 human monoclonal antibody (antibody, IgG1, V domains shown)
VH: QVQLVESGGGVVQPGRSLRLSCAASGFTFSSYGMHWVRQAPGKGLEWVAVIWYDGSNKYYADSVKGRFTISRDNSKNTLYLQMNSLRAEDTAVYYCAREWAVASWDYGMDVWGQGTTVTVSS
VL: not shown
notes: also called 26H10-FITC
